# Measured values from the NTF2 design screens of Basanta et al. (2020).
# Experiment: protease stability score; higher = more stable; yeast display proteolysis, trypsin and chymotrypsin;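 also: relative to predicted unfolded state with 0 unfolded-like and 1 meaning tenfold more protease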
row,Sequence,protease stability score
1,DDHETEMIHWAELFAELIRTGDEEKLDKLLDPNVKIDINGRKFHGRESMRFALKHLRIHHVEIDDLKVQGDKSFWIGFVEGQIDGQRDRRHSTIELLLVNGRIKSVQLEFR,1.61
2,DDHHEELRKFVEELSRARETGDEELIESLIDPHVKINVGDKRLHGRRAVEILLHEWRVHFFHSERMEVYGDKARIEGHMNGEYNGRRHETKLEMYVHKVNGKWILQHFTVE,2.17
3,DDHHELLKRMMDIIKEQFLTGDWEEHRRMADPHVKVIINGVQLIGWEHIRRFEEEMRRQWRIHHVEDKDERYFEGRAHVHSEIDGEFDGKREIHHSVIHLHVVNGRLKRLELRFE,1.28
4,DDHHEVARKIFFHHYNITQTGDEESIERLLDPNVRIIIDGKYIHGWEEILRLIRHIRIHRFNVHRVELQGEKLILDGFTDGSFDGKRITTTIDIYILKIDGRWFIQQIELR,1.46
5,DDHKKLVDEMIRIVLEELKTGNEETFNKLADPNVKVEWNGVDNHGREEVEEWWREYREVLGVDVIHIELKHVDPQGDKARIDGIIVETQGEKHHSFRAHIIIVVVNGRMHSIHERRR,0.881
6,DDHKKRVDHLLRELLHHWRTGDFEHIYKLADPHVRFHIQIGEFHHEAVGWDEVVRLIQTHLDQLGVDHLRIRRVKSQGDKLYIETESYIGDFRIEFHIIWIVVNGRLKEQRMHIHEG,1.45
7,DDHRDRLEHHASEFITAMLTGNWERLYQLVDPHVRLEIHVNGRKQHRVGREEFWTQWQKFVEDFGIDHSHLDRMEVIGNKMHAEFNIRVGDKRFILELHVIIVNGRISEVRVDFR,2.15
8,DDHSSARKFADEFREMMKTGDSTKADELFDPNVRVEVGDKRYHGREQAVDWIRHLVDRYDHIEIRIDHITVRGDRISIVFTVHYEKNGETTYDRYVMVAVDRNGRAQIKMLRKG,2.09
9,DDIDEHAETVVDHLIRSQMTGNEELFQHLADPHARLDINGKEYVGRELVSKIITHLRIHFLEIQFLHVQGDKVTIDVKIRGKVDGRTETSDQRLILVKINGKWLLTEIEVG,1.03
10,DDIDHFLLEIVLRFIEDNLTGNEDNLRKMADPDTRIFIHIGEKEFRIHGREAWTEWILTIVDHMRMRLNIRRLEWQGDKARITQEQDIHVGNKTHTTEVELHIVIIDGKMHTVHVELR,1.36
11,DDIEEDVKEFLRLMKEMNETGDEHRLTEMADPNVRVHIGDKHFHGREDAERLWRRADVFHHIKIKEYELQGDKLYMNVEVDGKFDGKRIRHDVTEIVTKVNGRWLLRSIRFD,0.577
12,DDIEEILKEAFERLIHDLRTGNEDNLRSLIDPNVRLNWNGQELHGREHVLELLTRIKNLRIEDWTTKDQRYQGDKIEMDGILHTRIGDKEIHLETHIHVRKVDGRWKIEQLDFR,2
13,DDIEEILRRMTELFWRALATGDEREERELADPHVRLDVNGRTYHGMEKVREWYRRIDHHHFETWHYHHIEFQGEKVYIEGRMRVNLDINGQELRIDTFTIILMLVINGRIHRFQYQVH,0.467
14,DDIEETFRHYLDQWIRDLRTGDEEALYRLADPNARHKINGQHLHGRELHDHEFNRIKNLKVDFVTRDIRIIGDKLIIHGEMIIRINGRQISIDTEIYLRKIDGRWFVEQVNVG,0.305
15,DDIEHDVKFFMERWVEAINTGDWKLLKKLVDPDAKFLIGDKELHGRELYVRHVLELRYRTEMIDNKIEVYDGRVHADMQVHSTLHIDGRNVDIHTHTRVVTRKVDGQWRLKSMEIL,0.993
16,DDIEKDIREVLDILIRAFQTGDEDKILELFDPHARVDVGEYHNHGWERVEEWMHRVDHIDVRRLEIKHFHHINGRIVLHTHFDGILTINGREIHTETEVHIILVKINGKWYFKEISHH,2.12
17,DDIEKDMERFTHVWLEAWRTGDEDLAKELFDPNTRVEQGDKKYHGRTEFVNLLSHIRIRDMRIHDIHYIVIDGKAIIDFDGELTIDVNGRFHRHRVIIHVEVIKINGQWEISQMRIEVR,1.11
18,DDIEKLMLWALHLFSHALSTGNEELVIRLADPHYRLHIGDWESHGRENFRQFIHEIRMHMKRVDDRDIRVQGEFVRIEGELDGVIFIDGRTFRTRLDTRIILNKVDGRWFIHSNHVH,1.27
19,DDIHRIIKTALELWLRVLETGDERLIHELLDPDARFVINGKFYHGREVWEEERRQIDHIRMDTFHLKHIDLVNGRLRIEGHIVFTVHVNGRTTRREEDVHFILTKFNGKWEMQSLNIE,1.15
20,DDIKEESRHAHEEMLKIIKTGNEEVFEEMADPDVRIILDINGRDVRSHGREEAVRFWHEFMERVKGLRIHTDDLIVVGDKIELRIHSRYNGVRTHIRMIVSKFDGVWLLTELEIRVV,1.75
21,DDIKEETDHLVDLLMEDIITGNERRLSHLADPNVRFTVGDWHSHGRKEMVEALRFTLDRADHVEYQPHRIENQGDKATAVIRVKLEYNGRTEEFRLIFTMEKIDGKWIVHKIFYR,0.976
22,DDIKHEILRLMQLAFHYWETGDWEHFHHLADPHVRIDLDFNGKRLDLHGRDELQRVLEEELKRIDHFELHVTSLTDQGNKAELHGHRHIHQGDKRIDVRVINILIVVDGRIKTYSVHIR,0.909
23,DDIREDLLRIIKLFIDYLITGDWKWIEKLADPHVRVEIDVNGKEIERHGMDQLREHLKHLWDRYDHLEFRIDDFKAIGEYSTLNGTLIVVVDGQKKSVEVRVVIVIINGKIDEVRHEQN,-0.239
24,DDIRKWMEHVFRDFNRSLKTGDERRSLELLDPHARIDINGVELIGREMFRKELHEMRIHVDDFDIESVDIQGDKVHLRTRVRVTIIVDGVKIHEERELEIHLHKFDGRWYIKEIRVR,1.46
25,DDKDEHSYRVAEDVVEAWLTGDWRWLMDMFDPHVRMDIDIDGVDIHLHGRHELARYILEEHQKYKNITVHIEHIRVQGDFIEINTSVRIDGQRHDRRLIIRIINGKIEEHQIHVR,1.01

row,Sequence,protease stability score
1,DDKDEILLKLAKIVFENELTGDEESLEHLFDPNTRRIVNGKELVGWELISKYWKEQKKEMRVELRLRRHDIQGDKTRVRGEEILEIGEFKLILDVEITIVVINGRFTRIEIRVK,0.185
2,DDKDEKSKKWAEMFIHLIETGDEERIRELLDPDVRVEIGDKEIHGRERWLEWERRMRDKYKNLRFRIEHHHIQGDKVHIRTEREIGDKSLDIRIEIIIYNGRAKEFHIDIR,2.87
3,DDKDELTRTALEIFEYLEITGDWHVVSREADPHVRIVIGDKHLHGMEIFMDLTEELGVDHSSVHSLRSQGDKIDIDIELHQGEKSFRTKVTAEKVDGRWLIKRVLFR,1.3
4,DDKDQHEEVEKFARNVVSGNSDELRKQMDKDVRANVGDKTLRGREEVADFWKHMRDRIDHAEIKEIRFHNGEARIVMQFVHNGRTKQINIVMEFHDGHVKRLRVEDG,2.58
5,DDKEEHWHELNRIYFEWFRTGDEELIAKNADPNVRYHIDGREFHGREDFDKLMDHLSRKFKNARIEFDDMRWQGDKLHLRGTLRVGDKNIDTRIHIVIVNGQLHLIIHIRD,1.31
6,DDKEETARRILDWITKLLLTGDFDTLHRMADPHMRSNYGEFEMHGMEEHSEWWHRLTLRVDHLREEIKRVTVVNGKIVADLRLRFIIGDKVEVRDITVELIVVDGRLKELRFDVK,1.14
7,DDKEKHVKRISEILLHTWHTGNEESLNRMFDPEVKVYWNGRELVGRENSSKHLAEEKRRADHVEIEIKDVHVIGNKMIIDGTLRRHIGDYQDESEVHIHIEVVDGRIKRLELRIK,1.1
8,DDKEQRVEELARLLYKMLLTGDWKTLEHLADPHVRMHQGEYNNVGMETVVEHWRRWYEHIRLDDMKITDLKVYGNKLHTDIRLDGEVNGKHRILESELLLIVVDGKMREIEIRII,1.19
9,DDKHEINRELTRLFFETWLTGDEDWFQKMLDPHVRVEVGDKRSHGREEAARMLREHFESLGIKHLEYKSIELQGDKTIIDGRLDVDGQTRNSKIKVLIIDGRLTHLHIKLE,1.01
10,DDKHELSHKFVRLIMHLIDTGDEDDIHRLLDPHAKLHVGDKRFVGREDIAHFWKKHLDDLGADYRHTRLKHIDLIGEKVIVHTEIDLTVGEYRVTIDSTFVVEKINGRWLSREFRWN,0.88
11,DDKKQFLDHAINRLIRALLTGDWHILFRLLDPHVRMIQGDKEYHGRELWREIYFQDIQRVPNLTFLIKDYHIDLQGDKLRIEIEGELIIDGVNIHMEIISEHTKVNGRWSIHHLEIRHQ,1.33
12,DDKQRAYEELTRKTLEVIETGDERMIEEMLDPNVRIHIDGKHVHGMEEATRIFLHEFHHLGFKHFEFKSVIEVDEKLIVTGHMRVDGREVELRIVIWKVNGRWTTESIQIHRL,1.4
13,DDLDRYAEEAEKRHYENLETGDENRLQENADPHTRMDFNGRKFHGMDHNYHWMRKIREDLGVDNIRIHIHHMSVVDGVLHLDLIIRYGDKELRLHFVSEKINGRWRLKEVYYK,0.855
14,DDLEEATEFYIKLYYEAVETGDERLITELADPNMRIDWNGREIHGREEFVRRLREMRVSRIEVQHVDKYGDKLHIHVRIIIEVGDKKIESSSHLISLKFNGRWLLKSMWIK,1.39
15,DDLEEEAHKFLRIWLKNIITGDEDTLIELMDPRPRTIFNGVDLHGREDTSKRLSELRFNMRIDDIHVEVQGDKAIALSDVSYELIYNGRHVHLKSEIILTVRKFDGKWKAERLEIRIK,1.67
16,DDLEEEAKDAVTKFIHLLLTGDWKEIREMVDPNVRIDVGDKEKHGWEDFIRDALYMHHQVDHIEVRIRHIDIFENRVVTHSVIYIEVNGQDIRLDLTLYIKKINGRWEIRQIEFK,1.82
17,DDLEEEVEHFFELFWDDLLTGDEHSLTRQLDPHARFEYGDKVWHGREVYRQFMTQADHRHVEIKHTRVVNGRVEMNIEVRLHINGRRIESTVHIISTKINGQWRLESQHVE,-0.081
18,DDLEESLKHLLELIIQWIRTGDFHMLSQYADPDVKIHYNGREYIGREFFLQLMREMGANHFSVERIDFQGDKLHVEISFRVGDKETHTRVESWKFNGVWLLKHIEMR,0.463
19,DDLEHDHKTVLELLKHLEETGDWDRLAKLADPNVRLQIGDKEWHGRRDMAKVLKRFIEEMRIQHIRFRDMKIQGDKLVFDTELDFEQGDKTVHVRTEIILVVVNGQLKSIEIRIE,2.44
20,DDLEHEAHEFVRRFMEDFDTGNEKSFEDLADPNVRLDFDGKRQHGRETVSEWLYRWLYDLGIKHTTLRHVETINGRVHSTAELKVGDKHYDLHVEFKKVDGKWVFQRVYFR,1.11
21,DDLEHQARESLDLHTEARKTGDEDQLKNLIDPHVRIEQGDKHIHGMEMFIRHWHKLGADHSEFRLKHVRVIDGRVRIDGEMIIHINGRTISIEVHFNINKINGRWIITEIHIH,1.09
22,DDLEHSSETFEKLWLESVFTGDWRSLLEMLDPHARLVINGRDFIGRELVKETLKEFLDRVPNMTLKLEDREVHIQGDKARIELHTRLEVGDKTVDTRIELIVNKIDGRWLLESQIIRIH,1.08
23,DDLEKIVLRMLNLWLKSILTGDEEFEEHYADPNVRYEINGVELHGRERFSQWLTDLRRKFKNIRIEIRVHHTEAQGDKMRSEEELIIDFEGRQINREVRIDMKVIDGRIKEVKVHII,1.42
24,DDLEKVSHWFNRMWTEILKTGDEKLLKDLLDPHTKLIFENRHEHGREHMISFFKKLLDEMRVHDVKIRDIEVQGDKVISDTSLDLEINGRSFEVETRLLAVKVNGRWYVHEIELR,2.36
25,DDLEKWYEDIARLYHHNLLTGDEDVIHELLDPNVRLVVGDKHFHGRESVIEFLKRELTEIRIEDIKIKEVHWVGDFSINRGTLHIRINGVLFDVRSEVIFDVINGKIRRVTRIII,1.6
